From patent publication US7109299 come the findings set out here.

The target in test [1] is T1, IL-5RαECD, extracellular domain (ECD) of the human IL-5 receptor α chain, soluble (human) (UniProt Q01344).
T1 sequence (Q01344 whole entry, looked up): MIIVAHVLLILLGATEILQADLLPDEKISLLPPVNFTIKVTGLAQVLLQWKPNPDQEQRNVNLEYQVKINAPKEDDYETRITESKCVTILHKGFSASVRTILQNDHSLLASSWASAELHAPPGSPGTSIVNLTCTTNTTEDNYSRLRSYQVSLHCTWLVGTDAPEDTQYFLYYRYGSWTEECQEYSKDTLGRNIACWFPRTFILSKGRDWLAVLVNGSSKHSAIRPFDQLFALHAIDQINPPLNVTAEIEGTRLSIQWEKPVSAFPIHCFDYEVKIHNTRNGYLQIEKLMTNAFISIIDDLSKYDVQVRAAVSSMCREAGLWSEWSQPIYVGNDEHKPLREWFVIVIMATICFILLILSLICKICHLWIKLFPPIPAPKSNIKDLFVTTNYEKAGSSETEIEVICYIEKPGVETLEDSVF
Put plainly: competition with [125I] IL-5 for binding to immobilised IL-5Rα ECD; peptide after 10 days, disulfide-linked dimer.

For test [2], the target named is T1, IL-5RαECD, extracellular domain (ECD) of the human IL-5 receptor α chain, soluble (human). Put plainly: scintillation proximity competition assay, dimer against 20 pM [125I] IL-5 on IL-5Rα coated beads. On the technique in general: Scintillation proximity formats need no separation of bound from free tracer.

Bridge positions count the residues as written; N and C are the ends. Ends that are not written are not given here.

B1: dimeric form of AF17362 (spontaneously formed disulfide-linked dimer) (peptide)
peptide: TGGGDGYVCVEWARCPTCK
modifications: disulfide 15-18; also: homodimer linked by a Cys9-Cys9 interchain disulfide, disulfide at 9, other end not in the chain
In general, IC50 refers to the concentration at which inhibition is half-maximal. High values mean weaker potency, low ones greater potency. In test [1], B1 yielded an IC50 of 0.55 nM.

B2: dimer of (H)-…-(NH2) (peptide)
peptide: H-EGYVCVEWARCPTCR-NH2
modifications: disulfide (positions not given here); also: dimer, intramolecular and intermolecular disulfide linkages, places not given here
In test [2], B2 came in with an SPA pIC50 of 8.1.

B3: dimer of (H)-…-(NH2) (peptide)
peptide: H-EGYVCVEFARCPTCR-NH2
modifications: disulfide (positions not given here); also: dimer, intramolecular and intermolecular disulfides, places not given here
In the case of B3, in test [2], the SPA pIC50 worked out at 6.4.
